Results taken from patent publication US20240228599A1.

Target: cynomolgus monkey Factor B (cynomolgus monkey)
Experiment: ELISA; cynomolgus Factor B coated at 5 µg/mL, mAb in 3-fold dilutions from 10 µg/mL; EC50 by Prism according to the text, headed 'Binding Affinity (M)' on the sheet

B1: anti-factor Bb monoclonal antibody M12 (antibody, V domains shown)
VH: EVQLQQSGPELVKPGASVKMSCKASGYSFTDYLMNWVKQSHGKSLEWIGRINPYNGDAFYNQRFKGKATLTVDKSSSTAHMELRSLTSEDSALYYCARLENDYGFTYWGQGTLVTVSA
VL: DIVMTQAAFSNPVTLGTSASISCSSSKSLLHSNGITYLYWYLQRPGQSPQLLIYRMSNLASGVPDRFSGSGSGTDFTLRISRVEAEDVGVYYCAQMLERPWTFGGGTKLEIK
B1 gave an EC50 of 5.56 nM.
